± gives the uncertainty stated by the source.
Experiment: amyloid nucleation score (Sup35N fusion, yeast selection) (log enrichment); library NNK1; higher = more nucleation; inactive = no reads after selection
Procedure, shortened: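 The nucleation score equals the log enrichment of output over input reads from DiMSum, centred on the mode score of non-aggregating sequences. It was computed only for sequences with 100 or more input reads. The reads came from Illumina sequencing of plasmid inserts from psi-negative yeast expressing Sup35N fused to peptides of 20 random codons, induced with 100 μM copper sulfate for 24 hours and grown 7 days at 30°C without adenine and uracil.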

Row | Substance | amyloid nucleation score
1 | YTFGWLLIKPHLRPAFKPHR | -1.75 ± 2.7
2 | IHRFKFGG | 1.98 ± 0.2
3 | SAVTDQLMV | 0.119 ± 0.45
4 | IFGITNSMLVFMGYCLIHCL | -0.895 ± 1
5 | SEMGINQKFLLGVQDTLHRY | -1.45 ± 1
6 | LSRFEQGHELLHKSVIYCEV | -0.304 ± 0.32
7 | SPCLLF | -0.637 ± 2.1
8 | RSVAHSYT | 0.661 ± 0.54
9 | YGRATIWNYKSSMDGPKNGK | inactive
10 | QIYVIICLMFSDIGMHIAYV | inactive
11 | FYHKTFVYKEGLNGAALLGM | -0.023 ± 0.48
12 | RIGRKDLLFWVPTCRHVLLL | 0.416 ± 0.28
13 | PRFKTMVVTHFLSFNFYGWN | -0.505 ± 0.39
14 | INMRKLPSRVSSFKVKCGHR | -0.42 ± 1.7
15 | GSFLRGPHPKNY | 0.853 ± 0.66
16 | LCWRYMVLRMNFFAADLYYN | 1.39 ± 0.32
17 | YMDVTGDVK | -0.067 ± 0.85
18 | GSMNVECDRDRDRYNVCHYR | -0.569 ± 0.39
19 | YRSFAYEGSSRIGG | -0.022 ± 0.38
20 | EKWKKAAIWFFLSYWLAVWR | -0.301 ± 1.2
21 | LTNGAVGVTFAQNVWPFYAN | 3.67 ± 0.074
22 | SFISKLLNYVVAFCVVCDEI | 0.127 ± 0.5
23 | TMVCFVLDNCICKSLVTTCL | inactive
24 | NKTMGMKSYFLGNIFYMYGW | 5.215 ± 0.046
25 | THYIFLVYLWVYPGTDGWQR | inactive

Row | Substance | amyloid nucleation score
26 | VRVKLKGLFGFNWDG | 0.36 ± 1.2
27 | LNHSYMICLFLCNR | 6.95 ± 0.073
28 | FWCISVRVNYNGYYVYF | 1.2 ± 0.26
29 | SMVNNWIMDCLWAILWVIDI | inactive
30 | AFTFGYTFQFYLLASTYMIR | inactive
31 | NCYSF | 0.055 ± 0.29
32 | NYYCRDVI | 0.392 ± 0.3
33 | GWSLNQVVCCALCSVSRRKR | 0.553 ± 0.48
34 | TVWKSLLHNSAAAGV | 0.109 ± 1.6
35 | NVNETT | -0.547 ± 1.6
36 | DLCTNYQWFRAAYCYMSRVY | 1.2 ± 0.98
37 | FIVLAYCLSFWVAIYPEVHM | 0.581 ± 0.73
38 | LSSSGFWYWFT | -0.251 ± 0.32
39 | FYRCRRSRNGGISDVFRIIP | 0.242 ± 0.3
40 | VKFDLMAI | -0.777 ± 1.7
41 | MTRVNLKDKHNVRILSFN | inactive
42 | CPLEDLIKRLNHLYVH | 0.21 ± 0.6
43 | GVDHIGLGTEEYNQSYLGSG | -0.505 ± 0.53
44 | IICSSM | inactive
45 | DNRDYVALSFPRKLKWCYIS | -0.834 ± 0.25
46 | CVVFAVKGCAGGWTRFMLDN | -0.268 ± 0.4
47 | IVWVDLNRIGSCAGLGINYY | 0.18 ± 0.41
48 | MIAHLAPINRDAEYFINAIC | -0.236 ± 0.27
49 | RYSSVKLEMKSQVVIELTLI | 1.09 ± 0.76
50 | FKIFD | 1.15 ± 0.81

Row | Substance | amyloid nucleation score
51 | RFSITSGNYFNN | -0.971 ± 0.79
52 | RHGVRYSKLELINTREFYNE | -0.246 ± 0.9
53 | AGSGMLSKLVLLSRKSVSCN | 1.02 ± 0.74
54 | SCKYSAQNLWHLFYRNSLSS | -2.29 ± 2.1
55 | NWNFIRRSARVWSR | -1.7 ± 1.2
56 | WNNGVLLNRV | 0.792 ± 0.41
57 | GGIVLDTTHRVGYGRTSPCV | 0.289 ± 1.2
58 | AGFLS | -0.388 ± 0.62
59 | FEQCPIFRRGRLLRSNAVCA | -0.145 ± 0.33
60 | TMICFVVGFFGIQDKVVKCD | 0.135 ± 0.84
61 | IYFHLGGCI | -0.376 ± 0.42
62 | FSLRDISNISIWAYLNQPCR | -0.341 ± 0.32
63 | TKTTVHCFSSMIQYCAAPTL | -0.158 ± 0.73
64 | VTRVLLVKWPYNTVETCGGA | -0.317 ± 0.33
65 | AMGRGLNWCPIGFVVSDMQR | 1.39 ± 0.67
66 | RSICWKSFRRIFFDRW | 0.19 ± 0.85
67 | MDTFSIMTYLAWQSNELLLI | 1.22 ± 0.23
68 | RACFRVIYWFSLLDKVGETV | -0.427 ± 1.1
69 | SRIGTCGLNSCCLINNIVRD | 6.919 ± 0.045
70 | QGSCCD | -0.815 ± 0.86
71 | TSNLHTHGSVFDFWG | 0.732 ± 0.55
72 | YSARLLSERIKWHFTLMMND | 0.41 ± 0.36
73 | GALFWVIPIMLLMRSGLLDP | 0.498 ± 0.3
74 | SIVIIG | -0.155 ± 0.7
75 | NLSCIHGLYYGSRLVSGLYQ | 0.15 ± 0.71

Row | Substance | amyloid nucleation score
76 | HKLDQLKASRLPSLVNWRVG | 1.12 ± 0.7
77 | CTGSCVRRVCGGFIEADIRY | -0.28 ± 0.41
78 | SLYELPWDNYP | -0.043 ± 1.4
79 | MWGPHCTRSTTTLVPRARKG | 0.468 ± 0.46
80 | LRDNMLSEGMQLYCMARASA | -0.201 ± 0.72
81 | HSLEDMKHRLGLGGWSSCKV | 0.183 ± 0.57
82 | SCTCVQHPDGSYAFEIGAAN | 0.009 ± 0.96
83 | KELFLMPDGEPFMG | 0.079 ± 0.61
84 | YYNLTSGPFKGGCWQRYF | -0.205 ± 0.32
85 | MDVGIFMIMTVTRWKGCSVI | 0.565 ± 0.48
86 | PIRVM | -0.495 ± 0.43
87 | DFVMGYYVELWFMYASL | 0.4 ± 0.21
88 | WTVSSVIGNGWQCNRSYG | 0.247 ± 0.27
89 | SALILVFFYWA | 1.31 ± 0.3
90 | VTILWTKSYMESDISFYIMW | -1.03 ± 0.44
91 | VRTPRRCCSY | -0.096 ± 0.28
92 | FHHTKSGS | 1.67 ± 0.57
93 | FACSFQSNLLDKKYTSLVNL | 0.051 ± 0.55
94 | TQHRRLVSRSQEFNVTQLKW | 2.3 ± 0.27
95 | FLLAPTLL | -0.367 ± 1
96 | PLIITTMFGASVRESFHVVL | 1.21 ± 0.4
97 | IFLGIFSGILYRLSHRLCS | inactive
98 | TWQLNIYMEKFSGVEKSSTV | 7.841 ± 0.053
99 | ICFRSFRHGNYGLMRG | 1.35 ± 0.9
100 | KVLGQGYERMDLFIVVFR | -0.357 ± 0.59

Row | Substance | amyloid nucleation score
101 | VLSFDLVTVVGNKFLVWIKR | 0.276 ± 0.52
102 | RYCHVLIVIAQANQSFKDVQ | 7.725 ± 0.056
103 | RRTTSMERYCR | 0.291 ± 0.43
104 | WCVFAFMKSQQCK | -0.112 ± 0.22
105 | TFVACDLKCPRCAWVGDFVM | -0.912 ± 0.5
106 | WFMPTSRSKVVYLPSYRCNE | 0.432 ± 0.2
107 | TKVDRLALSM | 0.658 ± 0.59
108 | YTMRGASRSTTDLLKIMIYM | -2.83 ± 2.4
109 | EPVYISDWWTACEVADHVSL | inactive
110 | YSSICGSKLLRSGGCRGVGH | -0.083 ± 0.49
111 | GYIYLFGARFVVEEFGIVFW | 0.678 ± 0.93
112 | YLFTYRRVTWGSTLQS | 1.65 ± 0.48
113 | TVSSLSWDGMPLLPVTLIFS | -1.01 ± 1.2
114 | ARATS | -0.53 ± 0.52
115 | PNSERREAMVIMFRW | 0.633 ± 0.35
116 | SFFRFVQNVSRSAGVSDSAM | -0.508 ± 0.42
117 | DGTVGSYCMIFWELYRDNFF | -0.761 ± 1.2
118 | AGGAP | 0.501 ± 0.89
119 | FCVSTRRWGRAEYKRMDLLW | 0.077 ± 1
120 | YFYTSHFSLLTSTQFIYRLG | 0.392 ± 0.33
121 | CVFMRATLQK | 3.25 ± 0.15
122 | RDPVLDVGLRCMWHNGGPFG | -0.035 ± 1.4
123 | VIFYTFMVRTITACCLKLWV | inactive
124 | MAVLGALNRSGNMGVGLFYN | -0.647 ± 0.4
125 | ISCTTFACTTRLKIRAAS | 0.434 ± 0.56

Row | Substance | amyloid nucleation score
126 | VFSNLELTFDRGCFPVRCLR | -0.482 ± 0.35
127 | ILIFVNSVYRNVSSR | 5.27 ± 0.056
128 | FNYFVLFSLSFSTVFSFNDT | 3.37 ± 0.081
129 | TVIFMCLTAFGTSGNHIGSR | -0.776 ± 0.81
130 | CNYWRNRRWF | 1.48 ± 0.33
131 | GVSQNKCMPVWCVR | 0.504 ± 0.38
132 | CLNTMWRKPVEAREM | 0.189 ± 1
133 | FIQNGV | 0.659 ± 0.79
134 | GTVSGYYVRVGNFAMYYQAY | 1.91 ± 0.17
135 | VVLAMTVRLWC | -0.667 ± 1.3
136 | MVSDMLVKATVHPMYFMTLW | -0.34 ± 0.32
137 | VQYLMWSFTVAKLVMQDYHG | 0.835 ± 0.43
138 | LYAIYTAFNRVSSYSNMPVM | -0.599 ± 0.92
139 | SWCSCQV | 1.16 ± 0.6
140 | FFHNTSHASYIK | 1.09 ± 0.13
141 | MVYLGECCITFYSFNSYRVM | 4.55 ± 0.053
142 | TVRQTGRVPMTGLIMFW | 1.95 ± 0.19
143 | PALLEIQWSSCGV | -0.02 ± 0.72
144 | NFLIDTYCVNSFNVTL | 2.67 ± 0.17
145 | MFVRPRESAEHMLGFRVYSG | 0.452 ± 0.37
146 | SSLMPIYRLFLWFVKVYVKP | 9.39 ± 0.049
147 | AGGLLYMLTHLNDVHSVKRY | 1.12 ± 0.93
148 | IVNAGICPGNSRYSGNGATR | -0.162 ± 0.53
149 | NNMYTNVRVLKGRCLWVY | 0.376 ± 0.28
150 | HHLTRTTPYPTSTWLAQLLS | 0.994 ± 0.63

Row | Substance | amyloid nucleation score
151 | SIEDHDYFLIAFY | -0.076 ± 1.6
152 | YTIGTRPTMLRLFGVLRWAG | 1.19 ± 0.43
153 | LNINSFFVFGT | 4.97 ± 0.057
154 | RNVRGSSKT | 1.37 ± 0.48
155 | MVTDPWISTLSSFHLWGGFM | -0.318 ± 0.93
156 | TVHTLSIFFSGRAFAANPFS | 2.36 ± 0.16
157 | HLICRFVHVNHCLVQQPKGS | 1.37 ± 0.33
158 | GFIVTGNVGTFNALLERVLT | 4.04 ± 0.13
159 | LMFSDGWFLNGEISPWVGF | -0.393 ± 0.71
160 | QFESIGCVEWYMFGIREVFS | -0.318 ± 0.47
161 | WLWIRFIAVTSSSVEIRANS | -0.834 ± 0.54
162 | NIGYSLAVMSAMMLLHFNFG | 2.95 ± 0.082
163 | VKNWMYWQGMSVCRVCRGFY | 1.02 ± 0.38
164 | RFASISYVGTNSGLDVQSNW | 0.171 ± 1.2
165 | VYASSCMLGTWLSDSTSGCS | 0.371 ± 0.69
166 | MLYFRVGVSFGLFVDNFVGF | 2.12 ± 0.13
167 | CTYVLWRGMKGFR | 0.05 ± 0.88
168 | VDSFRGHIESFPSLRTFIVS | inactive
169 | GRFLHINS | inactive
170 | RFLGSWCSIYIGRCVMFDRG | 1.13 ± 0.28
171 | YLAKISSHDPGIAMMEMTGR | 0.315 ± 0.35
